Results on 7 molecules are retold here after US20240059758A1 (CORAT THERAPEUTICS, published 2024).

Test [1] has as its target T1, SARS-CoV-2 glycoprotein S (spike) on infectious virus (SARS-CoV-2, UniProt P0DTC2 14-1273). Briefly: cell-based or functional assay.
In test [2] the target is T1, SARS-CoV-2 glycoprotein S (spike) on …. The experiment in a line: cell-based or functional assay. The source holds these as a separate data set.
The target in test [3] is receptor binding domain (RBD) of the S1-subunit of SARS-CoV-2 glycoprotein S (SARS-CoV-2, UniProt P0DTC2 319-541). The experiment in a line: titration ELISA, IgG on RBD. On the technique in general: In an ELISA, binding on a coated surface is turned into a signal by an enzyme label.
Test [4] concerns the target T2, S1-His (SARS-CoV-2, UniProt P0DTC2 16-685). Briefly: BLI, antibody on Protein A sensor, S1-His in solution. On the technique in general: Biolayer interferometry detects binding as a change in optical thickness at a sensor tip.
Test [5] deals with T2, S1-His. Briefly: BLI, antibody on FAB2G capture sensor, S1-His in solution.
Test [6] addresses RBD-mFc (Sino Biologicals) (SARS-CoV-2, UniProt P0DTC2 319-541). The experiment in a line: BLI, RBD-mFc on anti-mouse Fc capture sensor, Fab in solution.
Test [7] deals with SARS-CoV-1 Spike protein (SARS-CoV-1, UniProt P59594 14-667). Briefly: titration ELISA.
Test [8] addresses T3, MERS-CoV Spike protein (MERS-CoV, UniProt K9N5Q8 18-725).
T3 sequence: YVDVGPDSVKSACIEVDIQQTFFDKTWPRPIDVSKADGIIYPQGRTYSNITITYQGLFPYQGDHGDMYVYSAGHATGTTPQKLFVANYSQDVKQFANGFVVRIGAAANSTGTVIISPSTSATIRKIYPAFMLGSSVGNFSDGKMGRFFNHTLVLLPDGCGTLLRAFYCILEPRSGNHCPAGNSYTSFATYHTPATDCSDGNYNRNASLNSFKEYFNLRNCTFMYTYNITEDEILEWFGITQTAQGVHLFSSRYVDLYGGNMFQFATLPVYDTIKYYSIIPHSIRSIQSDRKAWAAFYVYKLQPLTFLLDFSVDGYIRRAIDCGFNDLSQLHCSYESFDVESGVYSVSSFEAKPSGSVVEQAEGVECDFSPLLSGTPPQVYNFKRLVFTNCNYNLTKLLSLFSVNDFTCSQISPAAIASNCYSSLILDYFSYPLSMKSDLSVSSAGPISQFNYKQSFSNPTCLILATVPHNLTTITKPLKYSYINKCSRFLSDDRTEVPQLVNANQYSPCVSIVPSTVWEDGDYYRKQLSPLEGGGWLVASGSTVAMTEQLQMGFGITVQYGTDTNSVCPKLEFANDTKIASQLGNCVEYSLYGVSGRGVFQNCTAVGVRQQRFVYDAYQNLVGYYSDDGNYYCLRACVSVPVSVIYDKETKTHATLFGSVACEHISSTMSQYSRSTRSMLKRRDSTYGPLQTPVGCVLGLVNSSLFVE
Briefly: titration ELISA.

The target of test [9] is T4, HCov-HKU1 Spike protein (HCoV-HKU1, UniProt Q5MQD0 13-760).
T4 sequence: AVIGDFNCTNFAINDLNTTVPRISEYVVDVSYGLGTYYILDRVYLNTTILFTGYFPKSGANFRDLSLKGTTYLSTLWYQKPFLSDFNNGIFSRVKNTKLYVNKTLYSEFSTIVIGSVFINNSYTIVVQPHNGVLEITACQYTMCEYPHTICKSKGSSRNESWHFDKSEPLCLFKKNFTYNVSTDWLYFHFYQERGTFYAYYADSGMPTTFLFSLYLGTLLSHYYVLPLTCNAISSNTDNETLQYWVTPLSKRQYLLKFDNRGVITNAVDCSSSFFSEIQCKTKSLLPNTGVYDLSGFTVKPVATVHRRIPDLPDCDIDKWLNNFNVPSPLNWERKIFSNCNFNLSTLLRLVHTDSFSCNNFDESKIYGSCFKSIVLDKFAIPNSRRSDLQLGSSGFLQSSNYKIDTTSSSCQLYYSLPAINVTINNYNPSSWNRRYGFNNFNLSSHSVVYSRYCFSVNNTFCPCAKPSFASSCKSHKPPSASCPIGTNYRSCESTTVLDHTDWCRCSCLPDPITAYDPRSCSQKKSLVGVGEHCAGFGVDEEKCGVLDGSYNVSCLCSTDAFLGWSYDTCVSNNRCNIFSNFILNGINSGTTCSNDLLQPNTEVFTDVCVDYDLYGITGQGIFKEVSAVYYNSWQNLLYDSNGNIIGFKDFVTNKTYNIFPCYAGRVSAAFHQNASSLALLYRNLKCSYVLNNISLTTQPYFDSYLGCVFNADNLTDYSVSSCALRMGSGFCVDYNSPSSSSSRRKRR
The experiment in a line: titration ELISA.

The target in test [10] is T5, HCoV-229E Spike protein (HCoV-229E, UniProt P15423 16-560).
T5 sequence: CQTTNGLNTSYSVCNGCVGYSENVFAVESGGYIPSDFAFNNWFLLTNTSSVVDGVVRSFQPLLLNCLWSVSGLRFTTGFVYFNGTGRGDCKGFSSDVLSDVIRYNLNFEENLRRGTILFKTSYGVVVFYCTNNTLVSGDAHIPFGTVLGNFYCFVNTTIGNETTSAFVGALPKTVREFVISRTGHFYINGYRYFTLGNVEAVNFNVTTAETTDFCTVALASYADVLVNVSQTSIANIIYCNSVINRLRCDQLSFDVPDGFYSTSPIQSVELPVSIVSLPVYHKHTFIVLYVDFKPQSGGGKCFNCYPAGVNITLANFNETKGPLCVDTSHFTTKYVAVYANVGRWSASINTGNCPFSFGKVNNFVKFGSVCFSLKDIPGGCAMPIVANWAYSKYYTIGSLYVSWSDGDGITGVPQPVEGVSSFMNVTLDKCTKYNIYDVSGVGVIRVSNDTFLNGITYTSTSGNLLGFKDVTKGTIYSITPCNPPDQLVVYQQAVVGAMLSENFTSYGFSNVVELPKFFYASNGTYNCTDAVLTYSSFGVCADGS
Briefly: titration ELISA.

The target in test [11] is T6, HCoV-NL63 Spike protein (HCoV-NL63, UniProt Q6Q1S2 19-717).
T6 sequence: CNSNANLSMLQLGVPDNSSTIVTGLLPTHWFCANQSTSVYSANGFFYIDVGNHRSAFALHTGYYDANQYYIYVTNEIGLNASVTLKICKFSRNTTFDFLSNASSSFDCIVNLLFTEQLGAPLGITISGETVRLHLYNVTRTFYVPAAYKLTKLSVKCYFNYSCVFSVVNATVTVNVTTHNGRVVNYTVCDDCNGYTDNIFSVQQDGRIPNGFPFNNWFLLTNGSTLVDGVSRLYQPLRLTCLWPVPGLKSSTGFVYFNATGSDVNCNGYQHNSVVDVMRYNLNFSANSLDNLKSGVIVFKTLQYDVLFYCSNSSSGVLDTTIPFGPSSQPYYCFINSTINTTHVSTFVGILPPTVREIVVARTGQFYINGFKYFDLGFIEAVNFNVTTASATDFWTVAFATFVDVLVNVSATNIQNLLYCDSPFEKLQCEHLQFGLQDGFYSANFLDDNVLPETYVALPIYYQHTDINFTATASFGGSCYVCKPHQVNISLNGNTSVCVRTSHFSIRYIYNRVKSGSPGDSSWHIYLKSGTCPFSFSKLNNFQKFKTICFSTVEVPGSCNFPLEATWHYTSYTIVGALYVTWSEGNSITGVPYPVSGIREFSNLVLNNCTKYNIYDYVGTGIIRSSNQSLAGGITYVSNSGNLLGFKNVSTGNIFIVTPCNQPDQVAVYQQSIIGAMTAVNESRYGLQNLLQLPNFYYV
The experiment in a line: titration ELISA.

Test [12] has as its target S1-subunit of the SARS-CoV-2 glycoprotein S (SARS-CoV-2, UniProt P0DTC2 16-685). Briefly: titration ELISA, IgG on S1.

For orientation: EC50 means the concentration giving half of the maximal effect. As usually defined, the Kd is the constant that tells how readily two partners part at equilibrium. A low value points to tighter binding.

B1: YU537-H11 (IgG) (antibody, V domains shown)
VH: EVQLLESGGGLIQPGGSLRLSCAASGLTVSSNYMSWVRQAPGKGLEWVSVIYSGGSTYYADSVKGRFTISRDNSKNALYLQMNSLRAEDTAVYYCARGESGSPYGMDVWGQGTLVTVSS
VL: QSVLTQPPSVSAAPGQKVTISCSGSSSNIGNNYVSWYQQLPGTAPKLLIYDTNKRPSGIPDRFSGSKSGTSATLGITGLQTGDEADYYCATWDSSLSVGVFGGGTKLTVL
As for B1, in test [1], the “Virus neutralization (24-well titration) TCID50 (IgG)” value stood at 0.47 nM. Moreover, in test [1], the “Virus neutralization (96-well titration) TCID50 (IgG)” value worked out at 0.27 nM. The molecule also came in with a Neutralization in [2] of 0.47 nM. In addition, the response in test [3] was half-maximal at 1.4 nM (EC50). The figures for the Kd in test [4] and in [5] were 32.5 nM and 11.7 nM, respectively.

B2: YU537-H11 (Fab) (Fab, V domains shown)
VH: B1 VH
VL: B1 VL
B2 came in with a Kd in test [6] of 61.1 nM.

B3: YU536-D04 (IgG) (antibody, V domains shown)
VH: QVQLVQSGGGLVQPGGSLRLSCAASGLTVSSNYMSWVRQAPGKGLEWVSVIYSGGSTYYADSVKGRFIISRDNSKNTLYLQMNSLRAEDTAVYYCARDLVVMGLDVWGKGTLVTVSS
VL: DIQLTQSPSSLSASVGDRVTITCRASQGISSYLAWYQQKPGKAPKLLIYAASTLQSGVPSRFSGSGSGTDFTLTISSLQPEDFATYYCQQLNSYPITFGQGTKLEIK
Regarding B3, the “Virus neutralization (24-well titration) TCID50 (IgG)” value in test [1] came to 0.4 nM. For the same molecule, the “Virus neutralization (96-well titration) TCID50 (IgG)” value in test [1] worked out at 0.2 nM. The Neutralization in test [2] turned out to be 0.4 nM. The EC50 in test [3] turned out to be 1.1 nM. The values for the Kd in test [4] and in test [5] were 23 nM and 5.49 nM, respectively.

B4: YU536-D04 (antibody, V domains shown)
VH: B3 VH
VL: B3 VL
On to B4, for which the binding result in [7], in test [8], in [9], in [10] and in test [11] was “no binding” throughout.

B5: YU536-D04 (Fab) (Fab, V domains shown)
VH: B3 VH
VL: B3 VL
With B5, the Kd in test [6] stood at 17.5 nM.

B6: STE90-C11 (IgG) (antibody, V domains shown)
VH: QVQLVESGGGLVQPGGSLRLSCAASGLTVSSNYMSWVRQAPGKGLEWVSVIYSGGSTYYADSVKGRFTISRDDSKNTLYLQMNSLRAEDTAVYYCARDVADAFDIWGQGTMVTVSS
VL: DIVMTQSPSFLSASVGDRVTITCRASQGISSYLAWYQQKPGKAPKLLIYAASTLQSGVPSRFSGSGSGTEFTLTISSLQPEDFATYYCQQLNSYPPFTFGPGTKVDIK
B6: in [1], the “Virus neutralization (24-well titration) TCID50 (IgG)” value came out at 0.56 nM. The “Virus neutralization (96-well titration) TCID50 (IgG)” value in [1] worked out at 0.91 nM. In addition, the Neutralization in test [2] is 0.56 nM. For the same molecule, the EC50 in [12] and in test [3] was 0.3 nM each time. Also, the Kd in test [4] was found to be 6.53 nM; in test [5] it was 1.56 nM.

B7: STE90-C11 (Fab) (Fab, V domains shown)
VH: B6 VH
VL: B6 VL
B7 registered a Kd in [6] of 8.14 nM.
